Results from paper PMC6375729 (Molecular Cell, 2019).
One block for each binder: values may come before it. Where no end group is shown, it is not given here.

Assays:
Details in all cases: both partners purified
[1] = target: BRD4 second bromodomain (BD2), D334-E460 (human, UniProt O60885-1 334-460); test: ITC; peptide in the syringe titrated into protein in the cell; 15 °C; 50 mM HEPES pH 7.5, 150 mM NaCl; single binding site model
[2] = target: BRD4 first bromodomain (BD1), N44-E168 (human, UniProt O60885-1 44-168); test: as above
[3] = target: hexa-His-tagged BRD4 extra-terminal domain (BRD4/ET) (human, UniProt O60885-1 589-676); test: peptide or protein array; cellulose SPOT peptide arrays probed with hexa-His-tagged BRD4 domains, detected with HRP-conjugated anti-His antibody

Binder: HFAK(Ac)ARK(Ac)VPS [FOXN3 K426ac/K429ac peptide]
Kd [1]: 25.7 ± 1.8 µM
stoichiometry N [1]: 0.59 ± 0.018
Kd [2]: 37.8 ± 3.61 µM
stoichiometry N [2]: 0.62 ± 0.311

Binder: IHCK(Ac)AGK(Ac)GRT [PTEN K125ac/K128ac peptide]
Kd [1]: 44.8 ± 3.03 µM
stoichiometry N [1]: 0.6 ± 0.021
Kd [2]: 137 ± 16.9 µM
stoichiometry N [2]: 0.81 ± 0.082

Binder: DGGK(Ac)SGK(Ac)APR [FOXO3 K242ac/K245ac peptide]
Kd [1]: 44.4 ± 2.89 µM
stoichiometry N [1]: 0.64 ± 0.021
Kd [2]: 16.4 ± 0.5 µM
stoichiometry N [2]: 0.49 ± 0.005

Binder: LTNK(Ac)GHK(Ac)WKQ [DMTF1 K147ac/K150ac peptide]
Kd [1]: 29.4 ± 1.84 µM
stoichiometry N [1]: 1.1 ± 0.031
Kd [2]: 70.4 ± 3 µM
stoichiometry N [2]: 0.99 ± 0.061

B2: WHSC1L1 peptide, amino acids 147–162 (SPOT) (peptide, UniProt Q9BZ95 147-162, looked up)
peptide: KTGSPEIKLKITKTIQ
notes: source: synthesised on cellulose membrane (SPOT)
binding result [3]: binds

The remaining lines, values ahead:

binding result [3]: binds
B1: RPS26 peptide region, residues 31-48 (SPOT) (peptide, UniProt P62854 31-48, looked up)
peptide: PKDKAIKKFVIRNIVEAA
notes: RPS26 residues 31-48, motif printed as KFVIK; source: synthesised on cellulose membrane (SPOT)

Kd [1]: 7.75 ± 0.12 µM
stoichiometry N [1]: 0.75 ± 0.029
Kd [2]: 63.6 ± 1.6 µM
stoichiometry N [2]: 0.64 ± 0.026
Binder: RRRK(Ac)RFK(Ac)RHQ [FOXD3 K235ac/K238ac peptide]

Kd [2]: 158 ± 20.1 µM
stoichiometry N [2]: 0.58 ± 0.385
Binder: NSNK(Ac)YTK(Ac)SRG [FOXO3 K259ac/K262ac peptide]
